Read-outs that look alike come from different tables or passages of the source.
Experiments:
DnaBN, DnaB(1-300) [1] = target: T1, DnaBN, DnaB(1-300) (Bacillus subtilis, UniProt P07908 1-300); test: EMSA
T1 sequence: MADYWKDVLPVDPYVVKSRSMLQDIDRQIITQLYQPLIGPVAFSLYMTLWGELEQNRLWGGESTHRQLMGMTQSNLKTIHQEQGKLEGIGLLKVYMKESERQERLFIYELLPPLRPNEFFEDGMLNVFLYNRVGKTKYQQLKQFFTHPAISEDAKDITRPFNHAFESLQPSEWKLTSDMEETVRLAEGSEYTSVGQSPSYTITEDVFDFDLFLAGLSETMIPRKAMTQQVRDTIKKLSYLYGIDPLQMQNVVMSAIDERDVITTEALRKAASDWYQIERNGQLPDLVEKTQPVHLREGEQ

DnaB (native) [2] = target: T2, DnaB (native) (Bacillus subtilis, UniProt P07908 1-472); test: EMSA
T2 sequence: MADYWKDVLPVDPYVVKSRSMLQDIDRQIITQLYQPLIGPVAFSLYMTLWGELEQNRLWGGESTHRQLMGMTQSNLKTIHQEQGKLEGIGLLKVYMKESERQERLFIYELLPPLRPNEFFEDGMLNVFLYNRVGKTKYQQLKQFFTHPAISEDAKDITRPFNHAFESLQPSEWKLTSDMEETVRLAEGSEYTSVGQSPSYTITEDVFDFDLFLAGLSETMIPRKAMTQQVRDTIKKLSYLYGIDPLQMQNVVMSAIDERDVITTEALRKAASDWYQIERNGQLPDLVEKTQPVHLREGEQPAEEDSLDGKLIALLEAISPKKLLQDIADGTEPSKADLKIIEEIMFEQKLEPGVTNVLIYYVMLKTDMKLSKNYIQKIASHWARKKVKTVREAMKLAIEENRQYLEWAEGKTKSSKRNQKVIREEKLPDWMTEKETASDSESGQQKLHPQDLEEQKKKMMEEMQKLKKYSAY

DnaB (native) [3] = target: T2, DnaB (native); test: EMSA; remark: listed apart in the source
DnaBN, DnaB(1-300) [4] = target: T1, DnaBN, DnaB(1-300); test: EMSA; remark: listed apart in the source
AUC [5] = target: the molecule itself; test: AUC
DnaBN, DnaB(1-300) [6] = target: T1, DnaBN, DnaB(1-300); test: EMSA; remark: listed apart in the source
AUC [7] = target: the molecule itself; test: AUC; remark: listed apart in the source

B1: dT135 (ssDNA)
DNA: TTTTTTTTTTTTTTTTTTTTTTTTTTTTTTTTTTTTTTTTTTTTTTTTTTTTTTTTTTTTTTTTTTTTTTTTTTTTTTTTTTTTTTTTTTTTTTTTTTTTTTTTTTTTTTTTTTTTTTTTTTTTTTTTTTTTTTT
- binding result (DnaBN, DnaB(1-300) [1]): binds
- binding result (DnaB (native) [2]): binds

Binder: TTTTTTTTTTTTTTTTTTTTTTTTTTTTTTTTTTTTTTTTTTTTT (ssDNA) [dT45]
- binding result (DnaB (native) [3]): binds
- binding result (DnaBN, DnaB(1-300) [4]): binds

B2: DnaBN, DnaB residues 1-300 (N-terminal domain plus the central domain) (domain or fragment, B. subtilis, UniProt P07908 1-300, looked up)
chain: MADYWKDVLPVDPYVVKSRSMLQDIDRQIITQLYQPLIGPVAFSLYMTLWGELEQNRLWGGESTHRQLMGMTQSNLKTIHQEQGKLEGIGLLKVYMKESERQERLFIYELLPPLRPNEFFEDGMLNVFLYNRVGKTKYQQLKQFFTHPAISEDAKDITRPFNHAFESLQPSEWKLTSDMEETVRLAEGSEYTSVGQSPSYTITEDVFDFDLFLAGLSETMIPRKAMTQQVRDTIKKLSYLYGIDPLQMQNVVMSAIDERDVITTEALRKAASDWYQIERNGQLPDLVEKTQPVHLREGEQ
- Kd (AUC [5]): 500 nM
- stoichiometry N (AUC [5]): 4

B3: dT90 (ssDNA)
DNA: TTTTTTTTTTTTTTTTTTTTTTTTTTTTTTTTTTTTTTTTTTTTTTTTTTTTTTTTTTTTTTTTTTTTTTTTTTTTTTTTTTTTTTTTTT
- binding result (DnaBN, DnaB(1-300) [6]): binds
- binding result (DnaB (native) [2]): binds

B4: DnaB(1-428), C-terminally truncated DnaB (domain or fragment, B. subtilis, UniProt P07908 1-428, looked up)
chain: MADYWKDVLPVDPYVVKSRSMLQDIDRQIITQLYQPLIGPVAFSLYMTLWGELEQNRLWGGESTHRQLMGMTQSNLKTIHQEQGKLEGIGLLKVYMKESERQERLFIYELLPPLRPNEFFEDGMLNVFLYNRVGKTKYQQLKQFFTHPAISEDAKDITRPFNHAFESLQPSEWKLTSDMEETVRLAEGSEYTSVGQSPSYTITEDVFDFDLFLAGLSETMIPRKAMTQQVRDTIKKLSYLYGIDPLQMQNVVMSAIDERDVITTEALRKAASDWYQIERNGQLPDLVEKTQPVHLREGEQPAEEDSLDGKLIALLEAISPKKLLQDIADGTEPSKADLKIIEEIMFEQKLEPGVTNVLIYYVMLKTDMKLSKNYIQKIASHWARKKVKTVREAMKLAIEENRQYLEWAEGKTKSSKRNQKVIREEKLP
- stoichiometry N (AUC [7]): 4

B5: DnaB(1-365), C-terminally truncated DnaB (domain or fragment, B. subtilis, UniProt P07908 1-365, looked up)
chain: MADYWKDVLPVDPYVVKSRSMLQDIDRQIITQLYQPLIGPVAFSLYMTLWGELEQNRLWGGESTHRQLMGMTQSNLKTIHQEQGKLEGIGLLKVYMKESERQERLFIYELLPPLRPNEFFEDGMLNVFLYNRVGKTKYQQLKQFFTHPAISEDAKDITRPFNHAFESLQPSEWKLTSDMEETVRLAEGSEYTSVGQSPSYTITEDVFDFDLFLAGLSETMIPRKAMTQQVRDTIKKLSYLYGIDPLQMQNVVMSAIDERDVITTEALRKAASDWYQIERNGQLPDLVEKTQPVHLREGEQPAEEDSLDGKLIALLEAISPKKLLQDIADGTEPSKADLKIIEEIMFEQKLEPGVTNVLIYYVMLK
- stoichiometry N (AUC [7]): 4

Source: publication PMC2874997 (Nucleic Acids Research, 2010)
